Experiment: label from the status in PepcDB records
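Note: failed if final PepcDB status was selected cloned or expressed and not failed if soluble or beyond.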

Sequence | protein production
MAFTPFPPRQPTASARLPLTLMTLDDWALATITGADSEKYMQGQVTADVSQMAEDQHLLAAHCDAKGKMWSNLRLFRDGDGFAWIERRSVREPQLTELKKYAVFSKVTIAPDDERVLLGVAGFQARAALANLFSELPSKEKQVVKEGATTLLWFEHPAERFLIVTDEATANMLTDKLRGEAELNNSQQWLALNIEAGFPVIDAANSGQFIPQATNLQALGGISFKKGCYTGQEMVARAKFRGANKRALWLLAGSASRLPEAGEDLELKMGENWRRTGTVLAAVKLEDGQVVVQVVMNNDMEPDSIFRVRDDANTLHIEPLPYSLEE | not failed
MSKPPLFFIIIIALIVVAASFRFVQQRREKAANEAAPLQQKQVVVSNKREKPVNDRRSRQQEVIPAGTSMRYEVSFKPLNGGLEKTFRLQAQQYHALTVGDQGTLSYKGTRFVGFVSRTPDNE | failed
MSGMVDLKEFLAELGKTQKELKNVIEQAKDIGLELKTNSKMTPEQAGKLYKYIVDGIKEQIQANQPAKNPEQDNKDDLNTAVASKSLNKKVSKTPKKEETKSQPKPKKTKEKKKEAPTPIAKKKGGIEIVNTFENQTPPTENTPKVVSHSQIEKAKQKLQEIQKSREALNKLTQSNANNASNANNAKKEISEVKKQEQEIKRHENIKRRTGFRVIKRNDEVENESENSVTESKKPTQSAAAIFEDIKKEWQEKDKQEAKKAKKPSKPKATPTAKNNKSHKIDFSDARDFKGNDIYDDETDEILLFDLHEQDNFNKEEEEKEIRQNINDRVRVQRKNPWMNESGIKRQSKKKRAFRNDNSQKVIQSTTAIPEEVRVYEFAQKANLNLADVIKTLFNLGLMVTKNDFLDKDSIEILAEEFHLEISVQNTLEEFEVEEVLEGVKKERPPVVTIMGHVDHGKTSLLDKIRDKRVAHTEAGGITQHIGAYMVEKNDKWVSFIDTPGHEAFSQMRNRGAQVTDIAVIVIAADDGVKQQTIEALEHAKAANVPVIFAMNKMDKPNVNPDKLKAECAELGYNPVDWGGEHEFIPVSAKTGDGIDNLLETILIQAGIMELKAIEEGSARAVVLEGSVEKGRGAVATVIVQSGTLSVGDSFFAETAFGKVRTMTDDQGKSIQNLKPSMVALITGLSEVPPAGSVLIGVENDSIARLQAQKRATYLRQKALSKSTKVSFDELSEMVANKELKNIPVVIKADTQGSLEAIKNSLLELNNEEVAIQVIHSGVGGITENDLSLVSSSEHAVILGFNIRPTGNVKNKAKEYNVSIKTYTVIYALIEEMRSLLLGLMSPIIEEEHTGQAEVRETFNIPKVGTIAGCVVSDGVIARGIKARLIRDGVVIHTGEILSLKRFKDDVKEVSKGYECGIMLDNYNEIKVGDVFETYKEIHKKRTL | failed
DYQKEYERKLISPEEAANLVKDGMHIEIGGSANTALIIDKYLAKRKDELSHVEVGTFIDIAHYEFLKADPEQEKIKWESCFLYEPVRKCSKELGPCVHRPGVLSDAGYIAKELGGVLKGGKKYTDIAFLVTTPMDRHGFFNFGVTCTFLKSIAEGAEKVVVVVKKDMPWVNGGYDECIHISEVDYIVEDNEFPTPFLPFLPPPSKEDEMIAENIMEAGLIENGSTLQVGIGGLPNTVVRMLKEAGLKDLGIHTEMMGDGLMELMEEGIVTNQNKKLDRGKAVFSFALGTRKLYDFLDRNPEVATYPVEYTNNPFVVAQQPKMFSLNQVAQIDLMGQINSGQIGLTSPSGKIFQISGTGGQLDFVLGCFYSFDRQGKSVLATYSTYNGTSRIIPALPTGAGVTVPRSVVQYVATEWGIAYLRGLPIYKRAAAMIQLAHPDHRDWLEEEARKLGILPPKYSIPAGKADGVIYRRD | failed
MGCGFSRQHVVKTNVSSFDRELLDLKIQRDSLQQYEQRLSDSLKNYIKLARRLVAENQRQQALVVLQVKHALQKSIEKAQNMRFNLEQVLSEIELKQIETDYVLKLRTGTKLLQSIQKTLSIEEIEHLLEETKEAIEFQNKVTEVLGSFSLMEIDESCEEELEQLETAMFPPVPKRLEKTMTPQVTENMQVKSETAKEYSKQESILLPS | not failed
MKAQYFFWILFLIGFYWMIYLYQDFLMDALIAGLLCVGFFQVKVFLDKRFFNVVSSFLCVLILASVLIVPLYFIVYKSSNIIFEINFEKFSALIKWLKGIITENLSHFPTIHDGASKFLENFSAASITGYLLKISSYVGRYSLKLITDALFILGLLFFFFYYGERFYRYFLGVLPLGMNQSKKIFEEVAGILRIVLLTSLITVILEGVAFGVMIVWFGHDGWSLGILYGLASLVPAVGGALIWIPIAIYELYHGNVNEAIFIALYSILLISVLIDSVIKPILIVFIKKRIFKTTLKINEMLIFFSMIAGISQFGFWGIIVGPTITAFFIALLRLYENYFIQNEQKACE | failed
MGGKRHQNSGKGGKGRAKDAASAPQPNAGKVTLEGRSFLYVGGRDCQVAHLRQIASSYGAELIHHDGGLREAVSRIDRVLPSVDCVFCPIDCISHDACLRVKTGCKKWGKAFVPLRNGSKSSLEHHHHHH | not failed
MIIPDLFRLNDWSTRRFNLFIWSILVAYDFSFISNVPLYSIEILSKILGFVILTFIPGYIILRIFKVHDIDRVVTLLLAIGLSLSFIMIFGFTVNMFLPYIGVSKPISTFPLFYSLNISILVLMIIYYFRDKKFNSSQNQLRITFSPMLFYFILLPLFSILGTESVNHYNFNMPVLILLFVISLSPILIALDRISRDLYPFMILSISLAILYNMNLISTHLWSYDIFYEAHTSKYVLENGIWNPGNKTMVPLLLFTILSPVYSLICDLNVIWVFKIIFPFFFSLTPLALYYVYKELDFGNYKIDSEIAMLSVFVFIFFYGFYKDMPDKQHIAELFLALILILSIFNTQKRILLFIFSFSLVVSHYGISYFFVFSLIFVSMMSRFRVNADTSFLTPTYTLLFSVLTFSWYIYISAGDVFEVITQVGYHFLSGIKDIFQANNDGRSASAYLSYLSNGILWVIYMLIHLILQFFIFIGVLNLLLSIMHNKTKSFEIALLTIIFYAFLFVQFFKTYGMGLDRILQITLILLSPLSIWGYSFCVKNLNSVYARIISKRIYRNKENGNLNLIFESTLTRNEAINKNHITNLSKKARLCFSIFLMIFFVFNSGFIFWMTGYPLPGYCININPNSGWPVYSESEICGVDWLKSHENEHNRIAVFNQWDTIKSRDGLLVAENFYSKDLIPIQTNTTTLYNSYLFLGKYSVDKVEDGEEDVDLQDTLFYNSTLKNSNKIYNSEKSHLYLAE | failed
MMRTGFQGVARLVHHKALYRSPQTLPRLHLASAFGSSTDSLVARFCGEKTDLKDYALPNASWCPDMLSLYQEFLEKTKSGSWVKLPSFKSNRDHIRGLKLPFGLVAASDKQDWRLFTRSIQLEGQGYEYVIFFHPSEKKSVCLFQPGPYLEGAPGFAHGGSLAALMDETYSKTAYLAGEGLFTLSFNIKFKNLIPVGSLAVLDLQVEKIEDQKLYMSCIAQSRDKQTVYAKSSGVFLQLQLEEEQSGEQ | failed
MDQSTLRHRITDQFSYRGERADIWRAFDLLFDTDEFLNLGYSEWYQPHIAGSSQRRLVTEVGSRVASHLPTTDGVRLLDVGCGRGGPALHLAYQFGFNVTGVDLVPYNIQMATENARGKHLDSEFIIGDATQLPFTRDSFTACTAIDALVYLPERNRVFATVADTLEPEGVLVVSDLVMQSDVTETERRLVDSFADAWDMPSLGTVEGYKAALDETSFELKAVEDITKHSVGRFRKWTTLYLQLLTSPLRALIERLLGAYDLDPPAITEQVRKAHHALPFLRHVIFVAELETT | failed
MESKTNYTIVGLIVLILTAGLLSAGLWLSVGFNQKEYTSYTVYLKESVSGLSVESPVKFNGVQVGYVKEIKLNKNDPRQVELLLNIEKSTPITTSTSATLITQGITGVTYVGLSAGSSELTPLRKMPGEPYPVIPSKPSLLNQLDAVLKEVAENVGAVSEKAQLIFNEENADNVRKSLANLERITEIIADKGQTIDSSLNNLDVFVANMANASKQFPQLIKDLKTGISKFKSLADNMSAAGKDVSKTMIAGKNTIDQISQQAIPPAVILLRRLNAISANLEKVSNEMRQNPSVIIRGTKAPKLGPGELEHHHHHH | failed
MNYRLIPALFLIVMGALFLLDNLGLAHMDVGNLIATWWPVFLIAAGVRQLLRYRQRAAATC | failed
MMTFNLREQQKRLQARMDELRAEIAFAQKGEKPWPYRSCLMREGRGYCEKHGEYHTHILVWSDRNGEDREEISCCPDCLIAEANDLTMELSSIKAEELTDNAGIALRFRDCEFDNYLEVNPGAARNLAACRRYAENWPDMLENGTSLVMTGSCGTGKNHLAVAMAKHIIRNYLASVEITDVMRLTRAVKNCWRNDSEKTADEVIERYASMDLLIIDEVGVQFGSAAEMAILQEIINARYESILPTILISNLSPEELWAFISPRIADRITDGGRNWLSFNWPSYRSRIRGVAALEHHHHHH | failed
